Data: US20120264815, “REVERSIBLE PLATELET INHIBITION” (DUKE UNIVERSITY, published 2012)

What was measured:
[1] = molecular target: T1, glycoprotein IIb/IIIa on activated platelets (Homo sapiens, UniProt P08514;P08514;P05106 P08514:32-887,P08514:891-1039,P05106:27-788); assay: filter; apparent Kd on activated platelets, poorest binder; conditions: label: 5'-32P
Description: (§1) In order to correlate the real-time data with binding affinity, purified 11D platelets were isolated and the affinity of each round to activated platelets was measured using nitrocellulose-filter partitioning (Wang et al, Biochemistry 32:1899-1904 (1993)). Since purified gpIIb/IIIa were selected, 80,000 gpIIb/IIIa receptors per platelet were assumed (Tcheng, Am. Heart J. 139:S38-45 (2000)) and the theoretical concentration of the protein was calculated.
(§2) Representative clones from each family were subsequently tested for their ability to bind to purified platelets.

[2] = molecular target: T1, glycoprotein IIb/IIIa on activated …; assay: filter; apparent Kd on activated platelets, 37 C; conditions: label: 5'-32P
Description: as §1, §2

[3] = molecular target: T2, von Willebrand factor (VWF) (Homo sapiens, UniProt P04275 P04275:764-2813); assay: filter; buffer F, 150 mM NaCl, 2 mM CaCl2, 37 C; Bmax 61%; conditions: tags: Haematologic Technologies Inc. (factor VIII free); label: 5'-32P
Description: Dissociation constants (Kd) of each truncate were determined using double-filter nitrocellulose filter binding assays (Pergolizzi et al, Blood 108:862-869 (2006)). All binding studies were performed in binding buffer F (20 mM HEPES, pH 7.4, 150 mM NaCl, 2 mM CaCl₂, and 0.1% BSA) at 37° C. Human purified VWF (with factor VIII and factor VIII free) was purchased from Haematologic Technologies Inc. (Essex Junction, VT) and used in the double-filter nitrocellulose filter binding assay to determine the Kd of individual clones. Briefly, RNA was dephosphorylated using bacterial alkaline phosphatase (Gibco BRL, Gaithberg, Md.) and end-labeled at the 5′ end with T4 polynucleotide kinase (New England Biolabs, Beverly, Mass.) and [γ³²P] ATP (Amersham Pharmacia Biotech, Piscataway, N.J.). Direct binding was performed by incubating ³²P—RNA with VWF in physiological buffer+1 mg/ml BSA at 37° C. for 5 min. The fraction of the nucleic acid-protein complex which bound to the nitrocellulose membrane was quantified with a phosphoimager (Molecular Dynamics, Sunnyvale, Calif.).

[4] = molecular target: T2, von Willebrand factor (VWF); assay: filter; nitrocellulose filter binding, 37 C, 2 mM CaCl2; conditions: tags: Haematologic Technologies Inc. (factor VIII free); label: 5'-32P
Description: (§3) Affinity constants (Kd values) were determined using double-filter nitrocellulose filter binding assays (Rusconi et al, Thromb. Haemost. 84:841-848 (2000)). All binding studies were performed in either binding buffer E (20 mM HEPES, pH 7.4, 50 mM NaCl, 2 mM CaCl₂, and 0.1% BSA) or binding buffer F (20 mM HEPES, pH 7.4, 150 mM NaCl, 2 mM CaCl₂, and 0.1% BSA) at 37° C. Human purified VWF (factor VIII free) was purchased from Haematologic Technologies Inc. (Essex Junction, VT) and used in the double-filter nitrocellulose filter binding assay to determine the Kd of every other round and individual clones. VWF SPI and VWF SPIII domains were kindly provided by Dr. J. Evan Sadler (Washington University in St. Louis). Briefly, RNA were dephosphorylated using bacterial alkaline phosphatase (Gibco BRL, Gaithberg, Md.) and end-labeled at the 5′ end with T4 polynucleotide kinase (New England Biolabs, Beverly, Mass.) and [γ³²P] ATP (Amersham Pharmacia Biotech, Piscataway, N.J.) (Fitzwater and Polisky, Methods Enzymol. 267:275-301 (1996)). Direct binding was performed by incubating ³²P-RNA with VWF in physiological buffer+1 mg/ml BSA at 37° C. for 5 min. The fraction of the nucleic acid-protein complex which bound to the nitrocellulose membrane was quantified with a posphoimager (Molecular Dynamics, Sunnyvale, Calif.).

[5] = molecular target: VWF SPI fragment (V8 protease; C-terminal 455 residues of SPIII) (UniProt P04275 P04275:1674-2128); assay: filter; 37 C, 2 mM CaCl2; conditions: label: 5'-32P
Description: as §3

B1: C3 (ssRNA)
RNA: GGGAGGACGAUGCGGUGCCACAUGCCUCAGAUACAGCACGCACCUUCGACCUAAUCAGACGACUCGCUGAGGAUCC
modifications: 2'-F pyrimidines
For B1, the Kd [1] was 0.062 µM.

B2: C1 (ssRNA)
RNA: GGGAGGACGAUGCGGUAUAGACCACAGCCUGAGUAUUAACCACCAACCCAGGUACUCAGACGACUCGCUGAGGAUCC
modifications: 2'-F pyrimidines
Binder B2 has a Kd [2] of 0.006 µM.

B3: 9.14 T10 (ssRNA)
RNA: GGGAGGUGGACGAACUGCCCUCAGCUACUUUCAUGUUGCUGACGCACAGACGACUCGCUG
modifications: 2'-F pyrimidines
B3 showed a Kd [3] of 0.044 µM.

B4: VWF R9.14 (ssRNA)
RNA: GGGAGGACGAUGCGGUGGACGAACUGCCCUCAGCUACUUUCAUGUUGCUGACGCACAGACGACUCGCUGAGGAUCCGAGA
modifications: 2'-F pyrimidines
With B4 the Kd [4] was 0.012 µM and the binding result [5] was “no binding”.
